First the molecules themselves.
B1: mouse monoclonal antibody 4C2 (IgG1) (antibody, V domains shown)
VH: DVKLVESGGGLVKPGGSLKLSCAASGFTFSSYTMSWVRQTPEKRLEWVATISSGGSYTYYPDSVKGRFTISRDNAKNTLYLQMSSLKSEDTAMYYCTRDGNDYDYWGQGTTLTVSS
VL: DIQMTQTTSSLSASLGDRVTISCRASQDISNYLNWYQQKPDGTVKLLIYYTSRLHSGVPSRFSGSGSGTDYSLTISNLEQEDIATYFCQQGNTLPRTFGGGTKLEIK
B2: humanized 4C2 (4C2h), full-length antibody (antibody, V domains shown)
VH: B1 VH with D1Q, K3Q, V5Q, E42D, T97A, T111M, L112V
VL: DIQLTQSPSSLSASIGDRVTITCQASQDISNYLNWYQQRPGQAPKLLIYYTSRLHSGVPSRFSGRGSGTSFTIAINSFQAEDIGTYFCQQGNTLPRTFGGGTRVEIK
B3: mouse monoclonal antibody 2E6 (IgG1) (antibody, V domains shown)
VH: QVQLKGSGPGLVAPSQSLSITCTVSGFSLTGYGVNWVRQPPGKGLEWLGMIWGDGSTDYNSALKSRLSISKDNSKSQVFLKMNSLQTDDTARYYCARVGDYGDYFDYWGQGTTLTVSS
VL: DIQMTQSPASLSASVGETVTITCRASENIYSYLAWYQQKQGKSPQLLVYNAKTLAEGVPSRFSGSGSGTQFSLKINSLQPEDFGSYYCQHHYGTPWFGGGTKLEIK

Changes are numbered by the printed parent chain.

The assay addresses MERS-CoV spike receptor-binding domain (spike residues 367-606), hexa-His tagged (MERS-CoV, isolate EMC/2012 (GenBank …)). Nature of the assay: SPR. (In general: Surface plasmon resonance follows binding to a sensor surface in real time, without labels.)
Regarding B1, the affinity, expressed as Kd, was 162 nM.

Take B2: the Kd – broadly, the free concentration of one partner at which half of the binding sites on the other are occupied at equilibrium, for simple one-to-one binding – is ~217 nM.

With B3, the equilibrium dissociation constant (Kd) is 60.3 nM.
